Positions count from the first letter of the chain named. Names may count otherwise. “And” between values parts separate entries of the source, which are not always exact repeats. Equal values may be shown once. Read-outs that look alike come from different tables or passages of the source.
T1: FcgRIIa H (human, UniProt P12318)
T1 chain: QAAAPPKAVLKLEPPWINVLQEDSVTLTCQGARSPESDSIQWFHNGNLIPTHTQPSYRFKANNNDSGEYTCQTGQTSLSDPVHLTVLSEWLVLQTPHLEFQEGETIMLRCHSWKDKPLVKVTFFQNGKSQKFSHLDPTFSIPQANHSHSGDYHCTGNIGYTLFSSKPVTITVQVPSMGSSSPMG

T2: FcgRIa (human, UniProt P12314)
T2 chain: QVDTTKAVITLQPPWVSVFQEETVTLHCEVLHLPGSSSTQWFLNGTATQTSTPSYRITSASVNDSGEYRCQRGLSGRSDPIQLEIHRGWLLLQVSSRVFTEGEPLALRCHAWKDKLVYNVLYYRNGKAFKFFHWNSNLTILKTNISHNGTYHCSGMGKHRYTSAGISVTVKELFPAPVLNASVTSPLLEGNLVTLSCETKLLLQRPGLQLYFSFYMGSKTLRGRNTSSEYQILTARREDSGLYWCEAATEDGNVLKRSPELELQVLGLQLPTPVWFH

T3: FcgRIIb (human, UniProt P31994)
T3 chain: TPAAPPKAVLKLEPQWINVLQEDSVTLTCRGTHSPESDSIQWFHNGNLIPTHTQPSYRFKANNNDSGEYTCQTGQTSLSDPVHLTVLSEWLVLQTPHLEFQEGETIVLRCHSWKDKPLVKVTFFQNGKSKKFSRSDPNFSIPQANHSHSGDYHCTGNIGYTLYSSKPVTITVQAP

T4: FcgRIIa R (human, UniProt P12318)
T4 chain: T1 chain with H134R

B1: GpH7-TA54/GpH7-B78/GpL16-k0 (antibody)
chain 1: QVQLVQSGAEVKKPGASVTVSCKASGYTFTDYEMHWIRQPPGEGLEWIGAIDPKTGDTAYSESFQDRVTLTADKSTSTAYMELSSLTSEDTAVYYCTRFYSYTYWGQGTLVTVSSASTKGPSVFPLAPSSKSTSGGTAALGCLVKDYFPEPVTVSWNSGALTSGVHTFPAVLQSSGLYSLSSVVTVPSSSLGTQTYICNVNHKPSNTKVDKKVEPKSCDKTHTCPPCPAPEYLWGPDVFLFPPKPKDTLMISRTPEVTCVVVDVSHEDPEVKFNWYVDGVEVHNAKTKPREEQWNATYRVVSVLTVLHQDWLNGKEYKCKVSNKALPAPIEKTISKAKGQPREPQVYTLPPSRKELTKNQVSLTCLVKGFYPSDIAVEWESNGQPENNYKTTPPVLDSDGSFFLYSKLTVDKSRWQQGNVFSCSVMHEALHNRYTQKSLSLSP
chain 2: B1 chain 1 with Y232L, W234G, W294Y, A296S, A328L, I330E, K354D, R433H, K437E
chain 3: DIVMTQSPLSLPVTPGEPASISCQASESLVHSNRNTYLHWYLQKPGQSPQLLIYKVSNRFSGVPDRFSGSGSGTDFTLKISRVEAEDVGVYYCSQNTHVPPTFGQGTKVEIERTVAAPSVFIFPPSDEQLKSGTASVVCLLNNFYPREAKVQWKVDNALQSGNSQESVTEQDSKDSTYSLSSTLTLSKADYEKHKVYACEVTHQGLSSPVTKSFNRGEC
B2: GpH7-TA22/GpH7-TA58/GpL16-k0 (antibody)
chain 1: B1 chain 1 with W294Y
chain 2: B1 chain 1 with Y232L, W234G, A296S, A328L, I330E, K354D, R433H, K437E
chain 3: B1 chain 3
B3: H240-AK072/H240-BH076/L73-k0 (antibody)
chain 1: QDQLVQSGAEVKKPGASVKVSCKASGFNIKDTYIQWVRQAPGQGLEWMGRIDPLRKQTKYREKFEGRVTITADTSTNTAYMELSSLRSEDTAVYYCVRSGREFDYWGQGTLVTVSSASTKGPSVFPLAPSSKSTSGGTAALGCLVKDYFPEPVTVSWNSGALTSGVHTFPAVLQSSGLYSLSSVVTVPSSSLGTQTYICNVNHKPSNTKVDKKVEPKSCDKTHTCPPCPAPEYYWGPSVFLFPPKPKDTLMISRTPEVTCVVVDVSDEEPEVKFNWYVDGVEVHNAKTKPREEQYNATYRVVSVLTVLHQDWLNGKEYKCKVSNKALPAPIEKTISKAKGQPREPQVYTLPPSRKEMTKNQVSLTCLVKGFYPSDIAVEWESNGQPENNYKTTPPVLDSDGSFFLYSKLTVDKSRWQQGNVFSCSVMHEALHNRYTQKSLSLSP
chain 2: QDQLVQSGAEVKKPGASVKVSCKASGFNIKDTYIQWVRQAPGQGLEWMGRIDPLRKQTKYREKFEGRVTITADTSTNTAYMELSSLRSEDTAVYYCVRSGREFDYWGQGTLVTVSSASTKGPSVFPLAPSSKSTSGGTAALGCLVKDYFPEPVTVSWNSGALTSGVHTFPAVLQSSGLYSLSSVVTVPSSSLGTQTYICNVNHKPSNTKVDKKVEPKSCDKTHTCPPCPAPELLGGPSVFLFPPKPKDTLMISRTPEVTCVVVDVSHEEPEVKFNWYVDGVEVHNAKTKPREEQYNSTYRVVSVLTVLHQDWLNGKEYKCKVSNDALPMPIEETISKAKGQPREPQVYTLPPSREEMTKNQVSLTCLVKGFYPSDIAVEWESNGQPENNYKTTPPVLDSDGSFFLYSKLTVDKSRWQQGNVFSCSVMHEALHNHYTQESLSLSP
chain 3: DIQMTQSPSSLSASVGDRVTITCRASQDIHKYIAWYQQKPGQAPRLLIQYTSTLQPGVPSRFSGSGSGTDYTFTISSLQPEDIATYYCLQYEQLRTFGGGTKVEIKRTVAAPSVFIFPPSDEQLKSGTASVVCLLNNFYPREAKVQWKVDNALQSGNSQESVTEQDSKDSTYSLSSTLTLSKADYEKHKVYACEVTHQGLSSPVTKSFNRGEC
B4: H240-AK072/L73-k0 (antibody)
chain 1: B3 chain 1
chain 2: B3 chain 3
B5: H240-BH076/L73-k0 (antibody)
chain 1: B3 chain 2
chain 2: B3 chain 3
B6: H240-A5E/H240-B3E/L73-k0 (antibody)
chain 1: not shown
chain 2: not shown
chain 3: B3 chain 3

Experiments:
Experiment in all cases: SPR
FcgRIIIa F [1] = target: T5, FcgRIIIa F (human, UniProt P08637)
T5 sequence (P08637 17-208): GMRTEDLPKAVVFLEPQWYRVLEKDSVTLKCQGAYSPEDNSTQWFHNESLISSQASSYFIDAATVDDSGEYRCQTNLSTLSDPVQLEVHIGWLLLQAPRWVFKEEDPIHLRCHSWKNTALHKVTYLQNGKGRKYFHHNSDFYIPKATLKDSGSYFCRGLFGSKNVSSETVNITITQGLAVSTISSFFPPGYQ

FcgRIIa H [2] = target: T1, FcgRIIa H
FcgRIa [3] = target: T2, FcgRIa
FcgRIIb [4] = target: T3, FcgRIIb
FcgRIa [5] = target: T2, FcgRIa
FcgRIIIa V [6] = target: T6, FcgRIIIa V (human, UniProt P08637)
T6 sequence (P08637 17-208 F176V): as the sequence (P08637 17-208) above, with F160V counted along it

FcgRIIIa V [7] = target: T6, FcgRIIIa V; remark: listed apart in the source
FcgRIIa R [8] = target: T4, FcgRIIa R
FcgRIIIa F [9] = target: T5, FcgRIIIa F; remark: listed apart in the source
FcgRIIIa F [10] = target: T5, FcgRIIIa F; remark: listed apart in the source
FcgRIIb [11] = target: T3, FcgRIIb
FcgRIIa R [12] = target: T4, FcgRIIa R
FcgRIIa H [13] = target: T1, FcgRIIa H
FcgRIIIa V [14] = target: T6, FcgRIIIa V; remark: listed apart in the source
FcgRIIIa F [15] = target: T5, FcgRIIIa F; remark: listed apart in the source

Binder | Kd (FcgRIIIa F [1]) | Kd (FcgRIIa H [2]) | Kd (FcgRIa [3]) | Kd (FcgRIIIa V [7]) | Kd (FcgRIIa R [8]) | Kd (FcgRIIIa F [10]) | Kd (FcgRIIb [11]) | Kd (FcgRIIIa V [14]) | Kd (FcgRIIIa F [15]) | also measured
B1 | 1 nM | – | – | – | – | – | – | – | – | –
B2 | 1.3 nM | – | – | – | – | – | – | – | – | –
B3 | – | 130 nM | 0.24 nM | 0.98 nM | 460 nM | 3.7 nM | 2900 nM | – | – | Kd (FcgRIIb [4]): 1300 nM and 1400 nM and 1500 nM; Kd (FcgRIa [5]): 0.11 nM and 0.12 nM; Kd (FcgRIIIa V [6]): 0.99 nM and 1.2 nM; Kd (FcgRIIIa F [9]): 3.7 nM and 2.9 nM; Kd (FcgRIIa R [12]): 240 nM and 280 nM; Kd (FcgRIIa H [13]): 79 nM and 72 nM and 69 nM
B4 | – | – | – | – | – | – | – | 29 nM | 300 nM | –
B5 | – | – | – | – | – | – | – | 5.3 nM | 26 nM | –
B6 | – | 910 nM | 0.61 nM | 330 nM | 940 nM | 1600 nM | 4300 nM | – | – | –

Source: patent US10766960 (dated 2020)
